According to paper doi:10.1101/2022.04.11.487882:

Biological target: receptor-binding domain (RBD) of the SARS-CoV-2 spike (S) protein S1 region, His-tagged (SARS-CoV-2) (UniProt P0DTC2)
Assay: SPR

| Substance | Kd | koff | kon |
| --- | --- | --- | --- |
| recombinant human integrin αvβ6 (from UniProt P06756 31-1048; P18564 22-709) (complex) | 230 nM | 0.0236 s⁻¹ | 84000 M⁻¹ s⁻¹ |
| recombinant human integrin αvβ3 (from UniProt P06756 31-1048; P05106 27-718) (complex) | > 500 nM | – | – |
